Test results published in article PMC12615485, “New dengue virus inhibitors targeting NS3-NS5 interaction identified by in silico screening” (Frontiers in Microbiology, 2025).

Assays:
[1] = molecular target: NHS-NS5(270-900): 6His-NS5 RdRp(270-900) labelled with RED-NHS (DENV-2 NGC strain); test: MST
[2] = molecular target: 6His-NS5 RdRp(270-900) of DENV-2 NGC strain (DENV-2 NGC strain); test: ELISA

Row | Substance | Kd [1] | IC50 [2]
1 | 6His-NS3(177-618), helicase portion of NS3 (domain or fragment) | 7.2 µM | –
2 | NS3(566-585) peptide of DENV-2 | – | 127 µM
